A word on the Kd: it is the equilibrium constant for the complex coming apart. By koff is commonly meant the first-order rate constant of dissociation. Read a low koff as a long-lived complex. Broadly, the kon is the second-order rate constant of association. Read a high kon as fast association.

Positions count from the first letter of the chain named.

This note sets out measurements from patent publication US20150329642A1 (Genmab, published 2015).

To fix the notation:
B1: anti-c-Met HuMab 005 (IgG1) (antibody, V domains shown)
VH: QVQLVQSGAEVKKPGSSVKVSCKASGGTFSSYGFGWVRQAPGQGLEWMGRISPILGIANYAQMFQGRVTITADKSTSTAYMELSSLRSEDTAVYYCARDVGYDWPDTFDIWGQGTMVIVSS
VL: DIQMTQSPSSLSASVGDRVTITCRASQGISSWLAWYQQKPEKAPKSLIYAASSLQSGVPSRFSGGGSGTDFTLTISSLQPEDFATYYCQQYNSFPPTFGQGTKVEIK
notes: also called TH1016-005; PC1016-005
B2: IgG1-1016-022 (antibody, V domains shown)
VH: QVQLVESGGGVVQPGRSLRLSCAASGFTFSSYAMHWVRQAPGKGLEWVAVISYDGSNKYYADSVKGRFTISRDNSKNTLYLQMNSLRAEDTAVYYCARELLWFGELWGYFDLWGRGTLVTVSS
VL: B1 VL with L11V, Q38H, E41G, S46L, G65S, Q90E, Y91A, N92S, P95T, P96W
notes: also called TH1016-022; PC1016-022
B3: anti-c-Met HuMab 006 (IgG1) (antibody, V domains shown)
VH: B1 VH with Y32F, F34I, S52F, I57T, S84T, W104S, P105A, T107A, I118T
VL: B1 VL with G65S, F94Y
notes: also called TH1016-006; PC1016-006
B4: anti-c-Met HuMab 008 (IgG1) (antibody, V domains shown)
VH: EVQLVQSGAEVKKPGESLKISCKGSGYSFTSYWIGWVRQMPGKGLEWMGIIYPGDSETRYSPSFQGQVTISADKSISTAYLQWSSLKASDTAMYYCARQEITGEFDYWGQGTLVTVSS
VL: AIQLTQSPSSLSASVGDRVTITCRASQGISSALAWYQQKPGKAPKLLIYDASSLESGVPSRFSGSGSGTDFTLTISSLQPEDFATYYCQQFNSYPRTFGQGTKVEIK
notes: also called TH1016-008; PC1016-008

The first assay concerns the target T1, cMetECDHis (human, UniProt P08581 25-932, limits assumed, biotinylated in the cross-block ELISA of Example 17).
T1 construct: Expressed in HEK-293F cells; also called soluble cMetECDHis; biotinylated cMetECDHis
Kind of assay: cross-block ELISA; competitor 5D5. How it is done: (§1) First, the optimal coating concentrations of the tested anti-c-Met antibodies and the optimal cMetECDHis concentration were determined. Therefore, ELISA wells were coated overnight at 4° C. with anti-c-Met HuMabs serially diluted in PBS (8 μg/mL in 2-fold dilutions). Next, the ELISA wells were washed with PBST (PBS supplemented with 0.05% Tween-20 [Sigma-Aldrich, Zwijndrecht, The Netherlands]) and blocked for one hour at room temperature (RT) with PBSTC (PBST supplemented 2% [v/v] chicken serum [Gibco, Paisley, Scotland]). Subsequently, the ELISA wells were washed with PBST and incubated for one hour at RT with biotinylated cMetECDHis serially diluted in PBSTC (1 μg/mL in 2-fold dilutions). Unbound biotinylated cMetECDHis was washed away with PBST, and bound biotinylated cMetECDHis was incubated for one hour at RT with 0.1 μg/mL Streptavidin-poly-HRP (Sanquin, Amsterdam, The Netherlands) diluted in PBST.
(§2) ELISA wells were coated with anti-c-Met antibody at a sub-optimal dose as described above. After blocking of the ELISA wells, they were incubated with the predetermined concentration of biotinylated cMetECDHis in the presence of an excess of anti-c-Met antibody. The reaction was developed as described above. Residual binding was expressed as a percentage relative to the binding observed in the absence of competitor antibody.
A general note: ELISA stands for enzyme-linked immunosorbent assay.
As to B1, the “residual binding, % of no competitor” value worked out at 2.9%.
B2: the “residual binding, % of no competitor” value was determined as 4.2%.
Same read-out and setting: to B3 belongs 3.1%.
In the case of B4, the “residual binding, % of no competitor” value was 32.4%.

In the next assay the target is T1, cMetECDHis. Kind of assay: cross-block ELISA; competitor 035. How it is done:
as §1, §2
B1: the “residual binding, % of no competitor” value stood at 84.9%.
On the same count and under the same terms, the result for B2 reads 92.4%.
Still for that read-out and setting: to B3 belongs 67.5%.
Still for that read-out and setting: the result for B4 reads 32.9%.

Another assay has as its target T1, cMetECDHis. Kind of assay: cross-block ELISA; competitor 045. Here is the method:
as §1, §2
As to B1, the “residual binding, % of no competitor” value was 117%.
Turning to B2, the “residual binding, % of no competitor” value amounted to 95.7%.
The same measure, in the same setting: to B3 belongs 114%; to B4, 100%.

For a further assay, the target named is T1, cMetECDHis. Kind of assay: cross-block ELISA; competitor 068. How it is done:
as §1, §2
As to B1, the “residual binding, % of no competitor” value came out at 129%.
Same read-out and setting: to B2 belongs 104%.
The same measure, in the same setting: to B3 belongs 129%.
Same read-out and setting: to B4 belongs 112%.

A further assay deals with T1, cMetECDHis. Kind of assay: cross-block ELISA; competitor 062. Here is the method:
as §1, §2
With B1, the “residual binding, % of no competitor” value stood at 118%.
The same measure, in the same setting: to B2 belongs 99.4%; to B3, 119%.
The same measure, in the same setting: the result for B4 reads 100%.

The next assay deals with T1, cMetECDHis. Kind of assay: cross-block ELISA; competitor 064. Here is the method:
as §1, §2
With B1, the “residual binding, % of no competitor” value was determined as 118%.
Regarding B2, the “residual binding, % of no competitor” value was 102%.
As for B3, the “residual binding, % of no competitor” value worked out at 122%.
Same read-out and setting: the result for B4 reads 107%.

The next assay has as its target T1, cMetECDHis. Kind of assay: cross-block ELISA; competitor 024. How it is done: as §1, §2
As for B1, the “residual binding, % of no competitor” value was 114%.
Same read-out and setting: the result for B2 reads 99.4%.
Turning to B3, the “residual binding, % of no competitor” value stood at 113%.
With B4, the “residual binding, % of no competitor” value was determined as 103%.

A further assay concerns the target T1, cMetECDHis. Kind of assay: cross-block ELISA; competitor 058. Here is the method: as §1, §2
For B1, the “residual binding, % of no competitor” value came out at 3.6%.
B2: the “residual binding, % of no competitor” value came to 5.8%.
For B3, the “residual binding, % of no competitor” value came out at 3.6%.
The same measure, in the same setting: to B4 belongs 40.8%.

For another assay, the target named is T1, cMetECDHis. Kind of assay: cross-block ELISA; competitor 022. How it is done:
as §1, §2
Turning to B1, the “residual binding, % of no competitor” value worked out at 4.9%.
On the same count and under the same terms, to B2 belongs 3.8%; to B3, 4.6%.
For the molecule B4, the “residual binding, % of no competitor” value stood at 82.1%.

The next assay has as its target T1, cMetECDHis. Kind of assay: cross-block ELISA; competitor 181. How it is done:
as §1, §2
With B1, the “residual binding, % of no competitor” value turned out to be 131%.
On the same count and under the same terms, to B2 belongs 107%; to B3, 124%; to B4, 111%.

In the next assay the target is T1, cMetECDHis. Kind of assay: BLI (Octet); antibody captured, cMetECDHis in solution. Here is the method: Antibody binding to cMetECDHis was analyzed by means of Bio-Layer Interferometry (BLI) technology on the Octet System (Fortebio, Menlo Park, USA). Anti-human IgG coated biosensors (Fc-specific) were used to capture anti-c-Met antibodies according to the procedure recommended by the manufacturer. cMetECDHis derived from HEK293 cells was loaded on top of the immobilized anti-c-Met antibodies by placing the loaded biosensor into a well containing 10 μg/mL cMetECDHis diluted in 10 times diluted kinetics buffer (Fortebio). The difference in reflection of light (AA, nm) of the biosensor surface due to the binding of cMetECDHis was measured in real time during approximately 10 minutes and was used by the Octet software (V4.0, Fortebio) to calculate the association constant (kₐ [1/M×s]). Next, the loaded biosensor was placed into a well containing only kinetics buffer (10 times diluted in PBS) to determine the dissociation constant (kd [1/s]). Kinetics analysis was performed to determine the affinity (KD [M]) using model 1:1 (langmuir). As a positive control, 0.2 μg/mL 5D5 IgG1 produced in HEK293 cells, was used.
(In BLI a coated tip is dipped into the sample, and binding shifts an interference pattern.)
The molecule B1 displayed a Kd of 7.92 nM, a koff of 0.00252 s⁻¹ and a kon of 318000 M⁻¹ s⁻¹.
The matching figures for B2: 1.06 nM, 0.000251 s⁻¹ and 236000 M⁻¹ s⁻¹.
With B3, the Kd is 9.89 nM, the koff came to 0.0042 s⁻¹ and the kon is 425000 M⁻¹ s⁻¹.
The molecule B4 displayed a dissociation constant (Kd) of 5.12 nM, a koff of 0.00157 s⁻¹ and a kon of 308000 M⁻¹ s⁻¹.

For the next assay, the target named is T1, cMetECDHis. Kind of assay: cross-block ELISA; competitor 069. How it is done:
as §1, §2
Turning to B1, the “residual binding, % of no competitor” value was found to be 124%.
Regarding B2, the “residual binding, % of no competitor” value was found to be 99.6%.
In the case of B3, the “residual binding, % of no competitor” value is 124%.
Still for that read-out and setting: to B4 belongs 104%.

In another assay the target is T1, cMetECDHis. Kind of assay: cross-block ELISA; competitor 006. How it is done: as §1, §2
For B1, the “residual binding, % of no competitor” value was 18.2%.
Same read-out and setting: the result for B2 reads 60.5%.
For the molecule B3, the “residual binding, % of no competitor” value worked out at 14.6%.
Regarding B4, the “residual binding, % of no competitor” value turned out to be 47.3%.

In another assay the target is T1, cMetECDHis. Kind of assay: cross-block ELISA; competitor 101. How it is done: as §1, §2
As to B1, the “residual binding, % of no competitor” value is 103%.
Same read-out and setting: to B2 belongs 104%; to B3, 106%; to B4, 101%.

The next assay concerns the target T1, cMetECDHis. Kind of assay: cross-block ELISA; competitor G11-HZ. Here is the method: as §1, §2
As to B1, the “residual binding, % of no competitor” value was 76.8%.
As for B2, the “residual binding, % of no competitor” value was 85.9%.
For B3, the “residual binding, % of no competitor” value came out at 54%.
Still for that read-out and setting: to B4 belongs 2.7%.

Another assay has as its target T1, cMetECDHis. Kind of assay: cross-block ELISA; competitor 098. Here is the method:
as §1, §2
With B1, the “residual binding, % of no competitor” value came to 110%.
Regarding B2, the “residual binding, % of no competitor” value was found to be 105%.
B3: the “residual binding, % of no competitor” value came out at 111%.
B4: the “residual binding, % of no competitor” value turned out to be 107%.

A further assay concerns the target T1, cMetECDHis. Kind of assay: cross-block ELISA; competitor 008. Here is the method:
as §1, §2
Turning to B1, the “residual binding, % of no competitor” value came out at 81.9%.
Regarding B2, the “residual binding, % of no competitor” value was found to be 94.1%.
The same measure, in the same setting: the result for B3 reads 58.8%; that for B4, 5.4%.
